Measurements as given in article PMC5330652 (Journal of the American Chemical Society, 2017).

Target: the molecule itself
Assay: negative-stain TEM + dynamic light scattering

B1: cowpea chlorotic mottle virus (CCMV) capsid protein (natural protein)
chain: MSTVGTGKLTRAQRRAAARKNKRNTRVVQPVIVEPIASGQGKAIKAWTGYSVSKWTASCAAAEAKVTSAITISLPNELSSERNKQLKVGRVLLWLGLLPSVSGTVKSCVTETQTTAAASFQVALAVADNSKDVVAAMYPEAFKGITLEQLTADLTIYLYSSAALTEGDVIVHLEVEHVRPTFDDSFTPVY
stoichiometry N: 60
